Literature values as cited in publication PMC3050594.
Read-outs that look alike come from different tables or passages of the source.

Tests used:
[1] = target: RSV F glycoprotein (Human respiratory syncytial virus) (UniProt P03420)
[2] = target: RSV F glycoprotein (Human respiratory syncytial virus) (UniProt P03420); remark: listed apart in the source

| Substance | Kd [1] | Kd [2] |
| --- | --- | --- |
| motavizumab | 0.035 nM |  |
| palivizumab |  | 1.4 nM |
